The values below come from patent publication US20260217814 (published 2026).

In general, Kd refers to the concentration at which binding is half-saturated.

The target of assay [1] is T1, human serum albumin (human, UniProt P02768). The assay is described as follows: SPR, pH 5.5. A general note: In SPR one partner is held on a chip, and binding of the other changes the refractive index at the surface.
Assay [2] concerns the target T1, human serum albumin. The assay is described as follows: SPR, pH 7.4.
Assay [3] addresses T2, cynomolgus serum albumin (cynomolgus).
T2 chain: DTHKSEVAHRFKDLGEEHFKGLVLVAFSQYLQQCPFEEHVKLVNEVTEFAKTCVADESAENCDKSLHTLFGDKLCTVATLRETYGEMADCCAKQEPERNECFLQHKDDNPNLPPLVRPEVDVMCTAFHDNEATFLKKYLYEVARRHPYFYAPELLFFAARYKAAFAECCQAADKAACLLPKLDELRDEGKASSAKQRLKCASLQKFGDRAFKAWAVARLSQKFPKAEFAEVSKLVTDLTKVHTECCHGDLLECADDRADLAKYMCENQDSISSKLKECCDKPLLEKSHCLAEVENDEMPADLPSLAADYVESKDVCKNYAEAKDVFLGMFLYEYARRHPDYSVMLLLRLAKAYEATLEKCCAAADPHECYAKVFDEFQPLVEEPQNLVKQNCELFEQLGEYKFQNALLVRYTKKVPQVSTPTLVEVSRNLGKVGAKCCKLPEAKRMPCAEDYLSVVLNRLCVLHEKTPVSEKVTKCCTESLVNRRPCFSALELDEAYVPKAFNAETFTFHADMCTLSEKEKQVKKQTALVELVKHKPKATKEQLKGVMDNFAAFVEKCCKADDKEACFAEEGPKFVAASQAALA
The assay is described as follows: SPR, pH 5.5.

Assay [4] has as its target T2, cynomolgus serum albumin. Nature of the assay: SPR, pH 7.4.
A further assay deals with T3, cynomolgus IL-17A (cynomolgus).
T3 chain: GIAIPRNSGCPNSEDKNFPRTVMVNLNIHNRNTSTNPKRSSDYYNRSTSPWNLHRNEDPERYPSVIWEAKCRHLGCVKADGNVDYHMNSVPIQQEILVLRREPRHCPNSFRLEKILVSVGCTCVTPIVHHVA
The assay is described as follows: SPR.

The target of another assay is T4, human IL-17A (human).
T4 chain: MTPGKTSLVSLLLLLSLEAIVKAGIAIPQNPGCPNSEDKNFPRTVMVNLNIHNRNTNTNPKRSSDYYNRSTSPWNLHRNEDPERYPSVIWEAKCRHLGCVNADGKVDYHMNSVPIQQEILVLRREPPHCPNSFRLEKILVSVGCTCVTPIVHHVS
Nature of the assay: SPR.

B1: A5 HSA arm (antibody)
chain 1: EVQLVESGGGLVQPGGSLRLSCAASGIDFSTYGISWVRQAPGKGLEWIAYIYPDYGITDYASWVNGRFTISLDNAQNTVYLQMNSLRAEDTAVYYCARSGSYYSRGWGAHYFNLWGQGTLVTVSSASTKGPSVFPLAPSSKSTSGGTAALGCLVKDYFPEPVTVSWNSGALTSGVHTFPAVLQSSGLYSLSSVVTVPSSSLGTQTYICNVNHKPSNTKVDKKVEPKSCGGGGSGGGGSDIQMTQSPSSLSASVGDRVTITCQASQTINYWLAWYQQKPGKAPKLLIYRASTLASGVPSRFSGSGSGTDFTLTISSLQPEDFATYYCQNYYYSTSRSYGFGGGTKLTVLGGGGGSGGGGSGGGGSGGGGSEVQLVESGGGLVQPGGSLRLSCAASGFSFSSDYWMCWVRQAPGKGLEWIGCIYAGDVDDTDYASWARGRFTISRDNSKNTVYLQMNSLRAEDTAVYYCARVDGFDITYFDLWGQGTLVTVSS
chain 2: DIQMTQSPSSLSASVGDRVTINCQASESISSWLAWYQQKPGKRPKLLIYKASTLASGVPSRFSGSGSGTDYTLTISSLQPEDFATYYCQGYYLDSSVDDNVFGGGTKLTVLGRTRTVAAPSVFIFPPSDEQLKSGTASVVCLLNNFYPREAKVQWKVDNALQSGNSQESVTEQDSKDSTYSLSSTLTLSKADYEKHKVYACEVTHQGLSSPVTKSFNRGECGGGGSGGGGSDIQMTQSPSSLSASVGDRVTITCQSSESVYSNNQLSWYQQKPGQPPKLLIYDASDLASGVPSRFSGSGSGTDFTLTISSLQPEDFATYYCAGGFSSSSDTAFGGGTKLTVLGGGGGSGGGGSGGGGSGGGGSEVQLVESGGGLVQPGGSLRLSCAASGFSLSSNAMGWVRQAPGKGLEYIGIISVGGFTYYASWAKGRFTISRDNSKNTVYLQMNSLRAEDTATYFCARDRHGGDSSGAFYLWGQGTLVTVSS
Take B1: the Kd was 1.66 nM with human serum albumin [1], 2.69 nM with human serum albumin [2], 0.795 nM with cynomolgus serum albumin [3] and 2.47 nM in the assay with cynomolgus serum albumin [4].

B2: A5 IL-17A arm (antibody)
chain 1: EVQLVESGGGLVQPGGSLRLSCAASGIDFSTYGISWVRQAPGKGLEWIAYIYPDYGITDYASWVNGRFTISLDNAQNTVYLQMNSLRAEDTAVYYCARSGSYYSRGWGAHYFNLWGQGTLVTVSSASTKGPSVFPLAPSSKSTSGGTAALGCLVKDYFPEPVTVSWNSGALTSGVHTFPAVLQSSGLYSLSSVVTVPSSSLGTQTYICNVNHKPSNTKVDKKVEPKSCGGGGSGGGGSDIQMTQSPSSLSASVGDRVTITCQASQTINYWLAWYQQKPGKAPKLLIYRASTLASGVPSRFSGSGSGTDFTLTISSLQPEDFATYYCQNYYYSTSRSYGFGGGTKLTVLGGGGGSGGGGSGGGGSGGGGSEVQLVESGGGLVQPGGSLRLSCAASGFSFSSDYWMCWVRQAPGKGLEWIGCIYAGDVDDTDYASWARGRFTISRDNSKNTVYLQMNSLRAEDTAVYYCARVDGFDITYFDLWGQGTLVTVSS
chain 2: DIQMTQSPSSLSASVGDRVTINCQASESISSWLAWYQQKPGKRPKLLIYKASTLASGVPSRFSGSGSGTDYTLTISSLQPEDFATYYCQGYYLDSSVDDNVFGGGTKLTVLGRTRTVAAPSVFIFPPSDEQLKSGTASVVCLLNNFYPREAKVQWKVDNALQSGNSQESVTEQDSKDSTYSLSSTLTLSKADYEKHKVYACEVTHQGLSSPVTKSFNRGECGGGGSGGGGSDIQMTQSPSSLSASVGDRVTITCQSSESVYSNNQLSWYQQKPGQPPKLLIYDASDLASGVPSRFSGSGSGTDFTLTISSLQPEDFATYYCAGGFSSSSDTAFGGGTKLTVLGGGGGSGGGGSGGGGSGGGGSEVQLVESGGGLVQPGGSLRLSCAASGFSLSSNAMGWVRQAPGKGLEYIGIISVGGFTYYASWAKGRFTISRDNSKNTVYLQMNSLRAEDTATYFCARDRHGGDSSGAFYLWGQGTLVTVSS
In the case of B2, the Kd with cynomolgus IL-17A was 0.523 nM; with human IL-17A, 0.575 nM.
